From patent EP4806514A2 (Lepu Biopharma Co., Ltd., dated 2025)
Where a chain is given by its changes, count along the chain named.

T1: hCDH17-his (full length extracellular domain of human CDH17, Q23-M787, his tag at the C-terminal) (human, UniProt Q12864 23-787)
T1 construct: Limits of the construct (UniProt Q12864, Q23-M787, C-terminal his tag); also called human CDH17-his protein; human CDH17 protein
T1 sequence: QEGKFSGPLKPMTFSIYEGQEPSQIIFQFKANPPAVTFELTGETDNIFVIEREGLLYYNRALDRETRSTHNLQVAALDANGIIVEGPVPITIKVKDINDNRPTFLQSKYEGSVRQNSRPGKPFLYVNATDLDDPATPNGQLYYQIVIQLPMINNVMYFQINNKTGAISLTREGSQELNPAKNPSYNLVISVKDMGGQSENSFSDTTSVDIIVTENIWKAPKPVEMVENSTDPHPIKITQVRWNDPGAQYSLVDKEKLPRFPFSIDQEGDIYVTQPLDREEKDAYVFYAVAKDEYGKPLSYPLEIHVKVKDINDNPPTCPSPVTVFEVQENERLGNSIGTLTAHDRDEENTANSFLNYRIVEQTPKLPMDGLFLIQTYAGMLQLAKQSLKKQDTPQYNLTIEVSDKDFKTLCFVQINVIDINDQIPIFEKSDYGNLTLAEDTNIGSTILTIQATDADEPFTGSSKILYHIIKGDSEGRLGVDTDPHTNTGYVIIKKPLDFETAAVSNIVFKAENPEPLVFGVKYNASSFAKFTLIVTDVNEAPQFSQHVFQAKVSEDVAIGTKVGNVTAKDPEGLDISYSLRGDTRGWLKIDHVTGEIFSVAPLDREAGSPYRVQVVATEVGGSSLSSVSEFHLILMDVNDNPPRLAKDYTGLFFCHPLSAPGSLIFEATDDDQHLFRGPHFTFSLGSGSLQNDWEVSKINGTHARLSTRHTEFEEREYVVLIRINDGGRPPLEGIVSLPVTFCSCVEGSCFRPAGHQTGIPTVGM

T2: human CDH17, full length, expressed on cells (HEK293-hCDH17); AsPC-1, HCT-8, AGS, LoVo, KATO III, HT-29 tumor … (human, UniProt Q12864 23-832)
T2 construct: also called human CDH17 expressed on tumor cells
T2 sequence: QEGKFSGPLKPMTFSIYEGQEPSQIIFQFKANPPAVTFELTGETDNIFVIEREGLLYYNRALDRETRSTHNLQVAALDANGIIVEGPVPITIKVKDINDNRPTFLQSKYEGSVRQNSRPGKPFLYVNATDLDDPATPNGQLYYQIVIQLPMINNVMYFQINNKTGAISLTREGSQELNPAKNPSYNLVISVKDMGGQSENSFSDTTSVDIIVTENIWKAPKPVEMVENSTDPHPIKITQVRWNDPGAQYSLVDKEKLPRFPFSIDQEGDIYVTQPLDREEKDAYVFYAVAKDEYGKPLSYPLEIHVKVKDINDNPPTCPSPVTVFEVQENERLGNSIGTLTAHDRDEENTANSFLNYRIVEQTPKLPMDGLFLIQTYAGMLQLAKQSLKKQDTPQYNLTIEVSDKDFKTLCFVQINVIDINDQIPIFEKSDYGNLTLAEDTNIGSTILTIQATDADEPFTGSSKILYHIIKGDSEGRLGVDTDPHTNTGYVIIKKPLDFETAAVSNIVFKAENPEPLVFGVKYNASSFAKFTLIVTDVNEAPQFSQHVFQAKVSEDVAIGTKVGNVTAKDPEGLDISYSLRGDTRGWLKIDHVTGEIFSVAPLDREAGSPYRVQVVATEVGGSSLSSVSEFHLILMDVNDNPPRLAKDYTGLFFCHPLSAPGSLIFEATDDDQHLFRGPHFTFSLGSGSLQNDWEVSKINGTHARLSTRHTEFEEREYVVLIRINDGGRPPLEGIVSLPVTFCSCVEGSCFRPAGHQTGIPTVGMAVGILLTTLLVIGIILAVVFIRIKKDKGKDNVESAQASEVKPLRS

T3: human CDH16 protein (hCDH16-his, Novoprotein, Cat. No. CJ16) (human, UniProt O75309 19-786)
T3 construct: Bought; also called human CDH16-his
T3 sequence (looked up): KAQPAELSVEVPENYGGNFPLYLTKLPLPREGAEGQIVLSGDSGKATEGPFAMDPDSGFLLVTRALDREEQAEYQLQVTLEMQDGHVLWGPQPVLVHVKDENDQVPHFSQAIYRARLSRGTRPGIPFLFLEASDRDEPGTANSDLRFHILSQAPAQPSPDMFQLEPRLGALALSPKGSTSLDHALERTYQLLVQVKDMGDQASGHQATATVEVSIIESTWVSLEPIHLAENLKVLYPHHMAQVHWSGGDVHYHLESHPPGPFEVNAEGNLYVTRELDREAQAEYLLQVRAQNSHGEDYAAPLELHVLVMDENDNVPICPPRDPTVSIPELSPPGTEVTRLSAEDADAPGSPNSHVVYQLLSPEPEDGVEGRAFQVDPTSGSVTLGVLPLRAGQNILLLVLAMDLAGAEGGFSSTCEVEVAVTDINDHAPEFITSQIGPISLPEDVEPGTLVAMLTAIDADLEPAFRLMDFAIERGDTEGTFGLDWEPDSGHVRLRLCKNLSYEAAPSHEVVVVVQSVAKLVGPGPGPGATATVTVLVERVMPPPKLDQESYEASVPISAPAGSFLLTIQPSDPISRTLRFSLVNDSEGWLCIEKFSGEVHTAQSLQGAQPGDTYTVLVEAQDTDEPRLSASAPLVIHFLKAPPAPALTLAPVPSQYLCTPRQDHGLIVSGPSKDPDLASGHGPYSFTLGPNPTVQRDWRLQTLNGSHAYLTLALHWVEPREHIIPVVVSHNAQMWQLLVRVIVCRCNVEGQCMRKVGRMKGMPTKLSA

B1: 16C18 chimeric mAb (antibody, V domains shown)
VH: QVQLQQSGAELAKPGTSVKMSCKASGYNFTNYWMNWVKQRPGQGLEWIGTFNPSYGYTEYNQKFKDKAILTADKSSSTAYMQLNSLTSEDSAVYYCARRSSHFDYWGQGTTLTVSS
VL: DIVMSQSPSSLAVSAGEKVTMSCKSSQSLLNSRTRTNYLAWYQQKPGQSPKLLIYWASTRESGVPDRFTGSGSGTDFTLTISSVQAEDLAVYYCKQSYNLPTFGGGTKLEIK
notes: also called 16C8
B2: 29H8D3-z12p3 (antibody, V domains shown)
VH: QVQLVQSGAEVKKPGASVKVSCKASGYTFTDHTIHWMRQRPGQGLEWIGYIYPRDGYTKYNEKFKDRATLTADTSTSTAYMELRSLRSDDTAVYYCARFYYGYWYFDVWGQGTTVTVSS
VL: DIVMTQSPLSLPVTPGEPASISCRSSKSLLRSNANTYLYWFLQKPGQSPQVLIYRMSNLASGVPDRFSGSGSGTDFTLKISRVEAEDVGVYYCMQHLEYPFTFGQGTKLEIK
notes: PTM-removed variant of 29H8D3-z12
B3: 29H8D3-z12p4 (antibody, V domains shown)
VH: B2 VH with D55E
VL: B2 VL
notes: as for B2
B4: 29H8D3-z12p7 (antibody, V domains shown)
VH: B2 VH with D55E
VL: B2 VL with N35Q
notes: as for B2
B5: 29H8D3-z12p22 (antibody, V domains shown)
VH: B2 VH
VL: B2 VL with A34G, M94L
notes: PTM-removed variant of 29H8D3-z12; VH is that of 29H8D3-z12
B6: 69E3H11-z12a19 (antibody, V domains shown)
VH: QVQLVQSGAEVKKPGASVKVSCKASGYTFTTYWMHWVKQAPGQRLEWIGEIDPSDSYANYNQKFKGKATLTVDKSASTAYMELSSLRSEDTAVYYCALYYGYGDWGQGTTVTVSS
VL: EIVLTQSPGTLSLSPGERATLSCSVSSSISKIHLHWYQQKPGQAPRLLIYRTSNLASGIPDRFSGSGSGTDFTLTISRLEPEDFAVYYCQQGSNLPLTFGQGTRLEIK
B7: 69E3H11-z12a20 (antibody, V domains shown)
VH: B6 VH
VL: B6 VL with K31R
B8: 69E3H11-z12a21 (antibody, V domains shown)
VH: B6 VH
VL: B6 VL with S27A, K31R
B9: 69E3H11-z12a26 (antibody, V domains shown)
VH: B6 VH
VL: B6 VL with K31S, S53R
B10: 69E3H11-z12a27 (antibody, V domains shown)
VH: B6 VH
VL: B6 VL with K31S, S53R, L55R
B11: 69E3H11-z12a28 (antibody, V domains shown)
VH: B6 VH
VL: B6 VL with K31S, S53K
B12: 69E3H11-z12a42 (antibody, V domains shown)
VH: B6 VH
VL: B6 VL with S27A, K31R, S53R, L55R
B13: 143H10E4-z6 (antibody, V domains shown)
VH: QVQLVQSGAEVKKPGSSVKVSCKASGSTFTDHTIHWVRQAPGQGLEWIGYIYPVYGYTQNNEKFKGRATITADKSTSTAYMELSSLRSEDTAVYYCARSRDSNPYYFDYWGQGTTVTVSS
VL: EIVLTQSPDFQSVTPKEKVTITCTVSSSISSSNLHWYQQKPDQSPKPWIYGTSNLASGVPSRFSGSGSGTDYSLTINSLEAEDAATYYCQQWSSYPFTFGQGTKLEIK
notes: Humanized, human IgG1 constant region; also called 143H10E4 HU-VH1-1 / HU-VL1-3
B14: 143H10E4-z3 (antibody, V domains shown)
VH: B13 VH with I48M, A68V
VL: B13 VL
notes: Humanized, human IgG1 constant region; also called 143H10E4 HU-VH1-0 / HU-VL1-3
B15: 143H10E4-z9 (antibody, V domains shown)
VH: B13 VH with S84N
VL: B13 VL
notes: Humanized, human IgG1 constant region; also called 143H10E4 HU-VH1-2 / HU-VL1-3
B16: 29D2D7-z19p3 (antibody, V domains shown)
VH: QVQLVQSGAEVKKPGASVKVSCKASGYTFTDYDMHWVKQAPGQGLEWIGGFDPESAGTVYNLRFKDKATLTADKSTSTAYMELRSLRSEDTAVYYCARKGYYSVSSPFTYWGQGTLVTVSS
VL: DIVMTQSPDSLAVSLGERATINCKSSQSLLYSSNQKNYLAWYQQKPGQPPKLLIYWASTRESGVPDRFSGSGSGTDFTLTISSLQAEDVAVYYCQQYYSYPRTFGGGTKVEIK
notes: PTM-removed variant of 29D2D7-z19; VH is that of 29D2D7-z19
B17: 29D2D7-z19p5 (antibody, V domains shown)
VH: B16 VH
VL: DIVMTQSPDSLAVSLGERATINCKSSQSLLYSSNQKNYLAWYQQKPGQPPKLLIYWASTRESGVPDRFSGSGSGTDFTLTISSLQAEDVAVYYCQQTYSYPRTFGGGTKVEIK
notes: as for B16

How the values were obtained:
[1] = target: T1, hCDH17-his (full length extracellular …); assay: ELISA, hCDH17-his coated at 2 ug/mL
[2] = target: T2, human CDH17, full length, expressed on …; assay: flow cytometry, HEK293-hCDH17 cells
[3] = target: T3, human CDH16 protein (hCDH16-his, …); assay: ELISA, hCDH16-his coated at 1 ug/mL
[4] = target: T2, human CDH17, full length, expressed on …; assay: flow cytometry, HCT-8 cells
[5] = target: T1, hCDH17-his (full length extracellular …); assay: SPR (Biacore 8K), two doses, antibody captured on Protein A chip, hCDH17-his at 25 nM and 100 nM
[6] = target: T2, human CDH17, full length, expressed on …; assay: flow cytometry, LoVo, HCT-8 and AsPC1 cells
[7] = target: T1, hCDH17-his (full length extracellular …); assay: SPR (Biacore 8K), antibody captured on Protein A chip, hCDH17-his injected

| Binder | binding result [4] | binding result [5] | binding result [6] | other results |
| --- | --- | --- | --- | --- |
| B1 |  |  |  | binding result [1]: binds; binding result [2]: binds; binding result [3]: no binding (tested: titrated from 100 nM) |
| B2 | binds | binds |  |  |
| B3 | binds | binds |  |  |
| B4 | binds | binds |  |  |
| B5 | binds | binds |  |  |
| B6 |  | binds | binds |  |
| B7 |  | binds | binds |  |
| B8 |  | binds | binds |  |
| B9 |  | binds | binds |  |
| B10 |  | binds | binds |  |
| B11 |  | binds | binds |  |
| B12 |  | binds | binds |  |
| B13 | binds |  |  | binding result [7]: binds |
| B14 | binds |  |  | binding result [7]: binds |
| B15 | binds |  |  | binding result [7]: binds |
| B16 | binds | binds |  |  |
| B17 | binds | binds |  |  |
